Legend:
Assay in all cases: AUC
[1] = target: bacteriophage λ terminase protomer (TerL•TerS2), wild type (bacteriophage λ) (UniProt P03708)
[2] = target: T1, bacteriophage λ terminase large subunit TerL^λ, wild type (bacteriophage λ, UniProt P03708 1-641)
T1 sequence (looked up): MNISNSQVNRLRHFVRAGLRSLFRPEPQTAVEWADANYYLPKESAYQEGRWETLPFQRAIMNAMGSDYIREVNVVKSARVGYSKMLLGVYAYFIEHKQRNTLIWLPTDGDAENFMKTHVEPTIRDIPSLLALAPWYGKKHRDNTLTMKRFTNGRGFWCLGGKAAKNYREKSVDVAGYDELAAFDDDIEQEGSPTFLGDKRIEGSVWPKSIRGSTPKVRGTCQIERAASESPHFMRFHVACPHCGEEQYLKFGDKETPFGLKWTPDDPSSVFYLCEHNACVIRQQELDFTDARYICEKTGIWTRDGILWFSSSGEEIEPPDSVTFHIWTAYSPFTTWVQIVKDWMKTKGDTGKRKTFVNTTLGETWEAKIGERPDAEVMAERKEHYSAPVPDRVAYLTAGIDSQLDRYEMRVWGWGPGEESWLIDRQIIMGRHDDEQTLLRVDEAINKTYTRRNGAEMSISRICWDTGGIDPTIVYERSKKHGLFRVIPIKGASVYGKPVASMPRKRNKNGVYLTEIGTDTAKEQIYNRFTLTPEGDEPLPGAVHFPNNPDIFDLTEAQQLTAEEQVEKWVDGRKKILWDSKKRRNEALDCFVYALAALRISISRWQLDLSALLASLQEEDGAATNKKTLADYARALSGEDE

[3] = target: T2, bacteriophage λ terminase large subunit TerL^λ-E179A (bacteriophage λ, UniProt P03708 1-641, E179A)
T2 sequence (looked up): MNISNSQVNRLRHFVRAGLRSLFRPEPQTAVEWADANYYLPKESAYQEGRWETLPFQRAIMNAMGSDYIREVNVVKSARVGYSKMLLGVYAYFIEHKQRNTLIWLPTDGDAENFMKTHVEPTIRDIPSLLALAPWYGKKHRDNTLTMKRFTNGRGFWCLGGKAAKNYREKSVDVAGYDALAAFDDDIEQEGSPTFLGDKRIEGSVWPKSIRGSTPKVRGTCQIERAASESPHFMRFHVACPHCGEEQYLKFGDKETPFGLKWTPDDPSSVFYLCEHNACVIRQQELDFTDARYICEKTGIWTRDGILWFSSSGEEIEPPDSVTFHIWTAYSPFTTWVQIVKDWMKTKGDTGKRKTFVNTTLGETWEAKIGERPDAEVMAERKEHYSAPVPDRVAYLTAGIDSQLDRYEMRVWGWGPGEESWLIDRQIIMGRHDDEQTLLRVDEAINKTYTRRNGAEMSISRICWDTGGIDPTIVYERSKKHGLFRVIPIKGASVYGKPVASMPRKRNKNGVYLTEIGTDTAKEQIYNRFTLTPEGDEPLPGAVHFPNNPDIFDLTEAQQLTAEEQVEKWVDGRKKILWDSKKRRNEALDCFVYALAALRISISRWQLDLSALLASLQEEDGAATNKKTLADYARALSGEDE

[4] = target: T3, bacteriophage λ terminase large subunit TerL^λ-E179Q (bacteriophage λ, UniProt P03708 1-641, E179Q)
T3 sequence (looked up): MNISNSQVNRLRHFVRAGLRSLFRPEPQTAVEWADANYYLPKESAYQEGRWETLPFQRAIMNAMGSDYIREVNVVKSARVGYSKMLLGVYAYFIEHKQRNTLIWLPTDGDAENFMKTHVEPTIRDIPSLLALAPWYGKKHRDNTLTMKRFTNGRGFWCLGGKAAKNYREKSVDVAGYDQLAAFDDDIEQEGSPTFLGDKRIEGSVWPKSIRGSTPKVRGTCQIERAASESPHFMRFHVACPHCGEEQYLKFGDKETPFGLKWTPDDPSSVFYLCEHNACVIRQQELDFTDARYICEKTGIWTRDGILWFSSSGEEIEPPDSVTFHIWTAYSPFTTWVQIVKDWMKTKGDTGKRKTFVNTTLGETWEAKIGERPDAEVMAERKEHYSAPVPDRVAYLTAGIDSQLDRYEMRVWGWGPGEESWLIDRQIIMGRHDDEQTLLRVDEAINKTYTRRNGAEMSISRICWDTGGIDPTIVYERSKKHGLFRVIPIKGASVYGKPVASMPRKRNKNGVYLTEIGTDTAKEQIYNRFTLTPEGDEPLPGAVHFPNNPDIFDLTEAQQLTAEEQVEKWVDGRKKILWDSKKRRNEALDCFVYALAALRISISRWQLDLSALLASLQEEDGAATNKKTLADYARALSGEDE

**Q.** “bacteriophage λ terminase protomer (TerL•TerS2), wild type (from UniProt P03708 1-641; P03707 1-181) (complex)” was tested. Which stoichiometry N [1] did it give?
**A.** The stoichiometry N was 4.

B1: bacteriophage λ terminase small subunit TerS (natural protein, UniProt P03707 1-181, looked up)
chain: MEVNKKQLADIFGASIRTIQNWQEQGMPVLRGGGKGNEVLYDSAAVIKWYAERDAEIENEKLRREVEELRQASEADLQPGTIEYERHRLTRAQADAQELKNARDSAEVVETAFCTFVLSRIAGEIASILDGLPLSVQRRFPELENRHVDFLKRDIIKAMNKAAALDELIPGLLSEYIEQSG
**Q.** What does the source list for B1?
**A.** binding result [2]: binds; binding result [3]: binds; binding result [4]: binds
